The test concerns the target EDE1-C10 IgG1. The test can be described thus: shotgun alanine-scanning mutagenesis library binding screen. The settings on record: read off a plot.
On to “wild-type DENV2 16681 prM/E expressed in HEK-293T cells Q77A”, for which the percent of parent was 72 % WT. As to “wild-type DENV2 16681 prM/E expressed in HEK-293T cells L82A”, the percent of parent came to 57 % WT.

On to “wild-type DENV2 16681 prM/E expressed in HEK-293T cells K310A”, for which the percent of parent was -4 % WT. “wild-type DENV2 16681 prM/E expressed in HEK-293T cells V308A”: the percent of parent was 53 % WT. Consider “wild-type DENV2 16681 prM/E expressed in HEK-293T cells T155A”, for which the percent of parent is 81 % WT. The value for “wild-type DENV2 16681 prM/E expressed in HEK-293T cells N153A” was 61 % WT; that for “wild-type DENV2 16681 prM/E expressed in HEK-293T cells V97A” was 74 % WT. As for “wild-type DENV2 16681 prM/E expressed in HEK-293T cells I113A”, the figure is 73 % WT; as for “wild-type DENV2 16681 prM/E expressed in HEK-293T cells M6A”, 82 % WT; as for “wild-type DENV2 16681 prM/E expressed in HEK-293T cells V309A”, 57 % WT. As for “wild-type DENV2 16681 prM/E expressed in HEK-293T cells G78A”, the figure is 44 % WT.
